Data published in patent US20150337019A1 (MANUKAMED HOLDINGS LIMITED PARTNERSHIP, published 2015).

B1: Ac-HSSKLH-OH (peptide)
peptide: Ac-HSSKLH-OH
B2: MGO-modified Ac-HSSKLH-OH (peptide)
peptide: Ac-HSSKLH-OH
modifications: also: MGO-modified, site not given here
B3: Ac-SKLH-OH (peptide)
peptide: Ac-SKLH-OH
B4: MGO-modified Ac-SKLH-OH (peptide)
peptide: Ac-SKLH-OH
modifications: also: MGO-modified, site not given here
B5: Ac-HSSK-OH (peptide)
peptide: Ac-HSSK-OH
B6: Ac-SSKS-OH (peptide)
peptide: Ac-SSKS-OH
B7: MGO-modified Ac-SSKS-OH (peptide)
peptide: Ac-SSKS-OH
modifications: also: MGO-modified, site not given here
B8: MGO-modified Ac-KISIHL-OH (peptide)
peptide: Ac-KISIHL-OH
modifications: also: MGO-modified, site not given here
B9: Ac-PFKISIHL-OH (peptide)
peptide: Ac-PFKISIHL-OH
B10: MGO-modified Ac-PFKISIHL-OH (peptide)
peptide: Ac-PFKISIHL-OH
modifications: also: MGO-modified, site not given here
B11: Ac-SSKSNNRHNNND-OH (peptide)
peptide: Ac-SSKSNNRHNNND-OH
B12: MGO-modified Ac-SSKSNNRHNNND-OH (peptide)
peptide: Ac-SSKSNNRHNNND-OH
modifications: also: MGO-modified, site not given here
B13: Ac-SSKSNN-OH (peptide)
peptide: Ac-SSKSNN-OH
B14: MGO-modified Ac-SSKSNN-OH (peptide)
peptide: Ac-SSKSNN-OH
modifications: also: MGO-modified, site not given here
B15: Ac-SSKSNNRH-OH (peptide)
peptide: Ac-SSKSNNRH-OH
B16: MGO-modified Ac-SSKSNNRH-OH (peptide)
peptide: Ac-SSKSNNRH-OH
modifications: also: MGO-modified, site not given here
B17: Ac-SSKSNNRHNN-OH (peptide)
peptide: Ac-SSKSNNRHNN-OH
B18: MGO-modified Ac-SSKSNNRHNN-OH (peptide)
peptide: Ac-SSKSNNRHNN-OH
modifications: also: MGO-modified, site not given here
B19: Ac-KH-OH (peptide)
peptide: Ac-Lys-His-OH
B20: Ac-QNKHNN-OH (peptide)
peptide: Ac-QNKHNN-OH
B21: MGO-modified Ac-QNKHNN-OH (peptide)
peptide: Ac-QNKHNN-OH
modifications: also: MGO-modified, site not given here
B22: Ac-KHNN-OH (peptide)
peptide: Ac-KHNN-OH
B23: MGO-modified Ac-QNKH-OH (peptide)
peptide: Ac-QNKH-OH
modifications: also: MGO-modified, site not given here

biological target: T1, Cathepsin B from bovine spleen (bovine, UniProt P07688 80-332); test: cell-based or functional assay

| Binder | Cathepsin B inhibition test, 2 mM peptide |
| --- | --- |
| B1 | 122 |
| B2 | 102 |
| B3 | 146 |
| B4 | 67.6 |
| B5 | 165 |
| B6 | 119 |
| B7 | 107 |

biological target: T1, Cathepsin B from bovine spleen; test: cell-based or functional assay; remark: another data set of the same source

| Binder | Cathepsin B inhibition test, 2 mM peptide |
| --- | --- |
| B8 | 73.2 |
| B9 | 144 |
| B10 | 28.1 |

biological target: T1, Cathepsin B from bovine spleen; test: cell-based or functional assay; remark: another data set of the same source

| Binder | Cathepsin B inhibition test, 2 mM peptide |
| --- | --- |
| B11 | 164 |
| B12 | 110 |
| B13 | 129 |
| B14 | 107 |
| B15 | 125 |
| B16 | 102 |
| B17 | 131 |
| B18 | 104 |

biological target: T1, Cathepsin B from bovine spleen; test: cell-based or functional assay; remark: another data set of the same source

| Binder | Cathepsin B inhibition test, 2 mM peptide |
| --- | --- |
| B19 | 230 |
| B20 | 168 |
| B21 | 51.3 |
| B22 | 129 |
| B23 | 97.8 |
